Results reported in patent US20210101932A1 (Bicycle, published 2021).
*1 amine or outer side, *2 acyl side, *3 side chain or, on linkers, in order; H or OH if unused. Bridges are numbered along the chain shown (N, C = ends). Where no end group is shown, it is not given here. [ ]: non-standard residue; d: D form. TATA = O=C(CC[*:1])N1CN(C(=O)CC[*:2])CN(C(=O)CC[*:3])C1; hArg = N=C(N)NCCCC[C@H](N)C(=O)O; Aad = N[C@@H](CCCC(=O)O)C(=O)O; Chg = N[C@H](C(=O)O)C1CCCCC1; Nle = CCCC[C@H](N)C(=O)O; Nva = CCC[C@H](N)C(=O)O; Aib = CC(C)(N)C(=O)O

Target: T1, Recombinant human PD-L1 (Sino Biologicals or R&D systems), biotinylated (human, UniProt Q9NZQ7 19-238, limits assumed, biotinylated with EZ-Link Sulfo-NHS-LC-LC-Biotin)
T1 construct: captured on a streptavidin CM5 chip for SPR; also called human PD-L1 protein; Biotinylated PD-L1
Assay: SPR (Biacore), biotinylated PD-L1 on streptavidin chip
Protocol: Biacore experiments were performed to determine kₐ) (M⁻¹s⁻¹), kd (s⁻¹), KD (nM) values of monomeric peptides binding to human PD-L1 protein. […] The protein was desalted to remove uncoupled biotin using spin columns into PBS. For analysis of binding, a Biacore 3000 instrument was used utilizing a CM5 sensor chip (GE Healthcare). Streptavidin was immobilized on the chip using standard amine-coupling chemistry at 25° C. with HBS-N (10 mM HEPES, 0.15 M NaCl, pH 7.4) as the running buffer. The carboxymethyl dextran surface was activated with a 12 min injection of a 1:1 ratio of 0.4 M 1-ethyl-3-(3-dimethylaminopropyl) carbodiimide hydrochloride (EDC)/0.1 M N-hydroxy succinimide (NHS) at a flow rate of 10 μl/min. For capture of streptavidin, protein was diluted to 0.1 mg/ml in 10 mM sodium acetate (pH 4.5) and captured by injecting 70 μl onto the activated chip surface. Residual activated groups were blocked with a 7 min injection of 1 M ethanolamine (pH 8.5). Biotinylated PD-L1 stock was diluted 1:100 in HBS-N and captured on one flow cell at 5 μl/min to a level of 1000-1300 RU. Buffer was changed to PBS/0.05% Tween 20 and a dilution series of the peptides was prepared in this buffer with a final DMSO concentration of 0.5%. The top concentrations were 200 nM or 500 nM with 6 2-fold dilutions. The SPR analysis was run at 25° C. at a flow rate of Flow rate 50 μl/min with 60 seconds association and 400 seconds disassociation. Data were corrected for DMSO excluded volume effects. All data were double-referenced for blank injections and reference surface using standard processing procedures and data processing and kinetic fitting were performed using Scrubber software, version 2.0c (Biologic Software). Data were fitted using mass transport model allowing for mass transport effects where appropriate.

T1 sequence (Q9NZQ7 19-238 limits assumed): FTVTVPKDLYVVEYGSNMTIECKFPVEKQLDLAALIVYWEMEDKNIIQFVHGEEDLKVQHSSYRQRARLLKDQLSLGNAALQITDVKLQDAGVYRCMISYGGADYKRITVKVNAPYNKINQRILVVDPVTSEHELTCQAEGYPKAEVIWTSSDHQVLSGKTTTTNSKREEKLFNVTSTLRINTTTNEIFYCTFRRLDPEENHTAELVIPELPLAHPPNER

Kd [nM]	Binder
23	SDKCS[Nle]GWLTMCQKLHLCA (linker 4-12-18 via TATA) [BCY10062]
13.2	Ac-SEKCS[Aad]GWLTMCLKLHLCPSH (linker 4-12-18 via TATA) [BCY11831]
30	Ac-[hArg]CS[Aad]GWLTMCLKLHLC (linker 2-10-16 via TATA; not fully specified (C-terminus); printed as Ac-[HArg]CS[Aad]GWLTMCLKLHLC) [BCY11827]
54.5	SDKCSAGWLTMCQ[Nle]LHLCA (linker 4-12-18 via TATA) [BCY10068]
16.6	Ac-SDKCS[Aad]GWLTMCLKLHLCA (linker 4-12-18 via TATA) [BCY11828]
14.4	SDKCSAGWLTMC[Chg]KLHLCA (linker 4-12-18 via TATA) [BCY10066]
59.7	SDKCSAGWLTXCQKLHLCA ([Nle] as in SDKCSAGWLT[Nle]CQKLHLCA; Ci, Cii, Ciii cyclised on TATA) [BCY10058]

Further lines, the binder ahead of its results:

Binder	Kd [nM]
Ac-KCS[Aad]GWLTMCLKLHLC (linker 2-10-16 via TATA; not fully specified (C-terminus); printed as Ac-KCS[Aad]GWLTMCLKLHLC) [BCY11824]	60
Ac-SEKCS[Aad]GWLTMCLKLHLC (linker 4-12-18 via TATA) [BCY11825]	28.8
Ac-SDKCSEGWLTMCQKLHLC (linker 4-12-18 via TATA; not fully specified (C-terminus); printed as [Ac]SDKCSEGWLTMCQKLHLC) [BCY10960]	9.94
SDKCSXGWLTMCQKLHLCA ([Abu] as in SDKCS[Abu]GWLTMCQKLHLCA; Ci, Cii, Ciii cyclised on TATA) [BCY10055]	27.9
SDKCSAGWLTMCQKXHLCA ([Nle] as in SDKCSAGWLTMCQK[Nle]HLCA; Ci, Cii, Ciii cyclised on TATA) [BCY10071]	58.2
SDKCSAGWLTMCQKLH[Nva]CA (linker 4-12-18 via TATA) [BCY10083]	75
SDKCSAGWLTMCQKL[Aib]LCA (linker 4-12-18 via TATA) [BCY10073]	15.8
Ac-EKCS[Aad]GWLTMCLKLHLC (linker 3-11-17 via TATA) [BCY11826]	18.2
SDKCSAGWLTMCQK[Nva]HLCA (linker 4-12-18 via TATA) [BCY10084]	43.2
SDKCSXGWLTMCQKLHLCA ([Aib] as in SDKCS[Aib]GWLTMCQKLHLCA; Ci, Cii, Ciii cyclised on TATA) [BCY10054]	31.2
SDKCSAGWLTMCQKLHXCA ([Nle] as in SDKCSAGWLTMCQKLH[Nle]CA; Ci, Cii, Ciii cyclised on TATA) [BCY10074]	36.1
Ac-DKCS[Aad]GWLTMCQKLHLCPSH-OH (linker 3-11-17 via TATA; SMILES CSCC[C@@H]1NC(=O)[C@H]([C@@H](C)O)NC(=O)[C@H](CC(C)C)NC(=O)[C@H](Cc2c[nH]c3ccccc23)NC(=O)CNC(=O)[C@H](CCCC(=O)O)NC(=O)[C@H](CO)NC(=O)[C@@H](NC(=O)[C@H](CCCCN)NC(=O)[C@H](CC(=O)O)NC(C)=O)CSCCC(=O)N2CN3CN(C2)C(=O)CCSC[C@@H](C(=O)N2CCC[C@H]2C(=O)N[C@@H](CO)C(=O)N[C@@H](Cc2c[nH]cn2)C(=O)O)NC(=O)[C@H](CC(C)C)NC(=O)[C@H](Cc2c[nH]cn2)NC(=O)[C@H](CC(C)C)NC(=O)[C@H](CCCCN)NC(=O)[C@H](CCC(N)=O)NC(=O)[C@H](CSCCC3=O)NC1=O) [BCY11853]	17.6
SDXCSAGWLTMCQKLHLCA ([HArg] (homoarginine) = X at chain position 3; Ci, Cii, Ciii cyclised on TATA) [BCY10052]	22.3
